The target of this test is T1, 13C, 15N-enriched PIN1 (NMR sample) (human, UniProt Q13526 1-163, 13C, 15N-enriched).
T1 construct: PIN1, human; resonances of both the WW and the PPIase domain were followed; also called 15N-labeled PIN1
Briefly: NMR titration; series of 2D HSQC spectra of 0.1 mM 13C, 15N-enriched PIN1 titrated with the CDH1 phosphopeptide; 25 °C, pH 6.6, 20 mM potassium phosphate, 100 mM NaSO4, 10% D2O; chemical shift perturbation. To be noted: both partners purified.

Square brackets hold non-standard residues; d marks the D form. Ends that are not written are not given here. Pro(13C,15N) = 13C, 15N isotope-labelled Pro; pS = N[C@@H](COP(=O)(O)O)C(=O)O

T1 sequence (Q13526 whole entry, the tested form may be a part): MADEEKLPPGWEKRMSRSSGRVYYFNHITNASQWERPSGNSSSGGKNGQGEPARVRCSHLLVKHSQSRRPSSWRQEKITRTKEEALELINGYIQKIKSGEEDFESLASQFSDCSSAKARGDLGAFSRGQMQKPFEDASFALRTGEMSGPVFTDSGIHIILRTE

B1: CDH1-pS163 peptide (peptide)
peptide: LR[pS][Pro(13C,15N)]RKPTRKISKIPFKVLDAPE
notes: CDH1 (FZR1), human, residues 161-183; also called CDH1 phosphopeptide; phosphorylated peptide; source: synthetic peptide, bought: Pepmic
Turning to B1, the binding result is recorded as “binds”.
